# Measured values published in US20260234269A1 (TRUEBINDING, published 2026).
# T1: hGal3 peptide 1 (human)
# T1 construct: also called peptide 1 of Gal3
# T1 peptide: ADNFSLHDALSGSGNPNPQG
# T2: hGal3 peptide 8 (human)
# T2 peptide: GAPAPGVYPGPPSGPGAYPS
# T3: hGal3 peptide 7 (human)
# T3 peptide: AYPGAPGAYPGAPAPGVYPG
# T4: hGal3 peptide 6 (human)
# T4 peptide: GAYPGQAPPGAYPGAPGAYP
# T5: hGal3 peptide 4 (human)
# T5 peptide: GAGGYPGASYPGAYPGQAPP
# T6: hGal3 peptide 2 (human)
# T6 peptide: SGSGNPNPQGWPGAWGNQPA
# How the values were obtained:
# [1] = biological target: T7, Human Galectin-3 protein (Acro Biosystems, GA3-H5129) (human, UniProt P17931 2-250); test: ELISA, hGal3 coated, antibody 3 ug/mL, competitor hTIM3
# T7 construct: Bought protein; also called hGal3; Gal3; not shown: linker-spaced 6-histidine tag
# [2] = biological target: T1, hGal3 peptide 1; test: peptide ELISA, 20-mer library (Epitope Mapping)
# [3] = biological target: T2, hGal3 peptide 8; test: peptide ELISA, 20-mer library (Epitope Mapping)
# [4] = biological target: T3, hGal3 peptide 7; test: peptide ELISA, 20-mer library (Epitope Mapping)
# [5] = biological target: T7, Human Galectin-3 protein (Acro …); test: SPR Biacore T200, antibody captured, Galectin-3 analyte
# [6] = biological target: T8, Flag-tagged human Gal3 protein on A20 cells (A20 Gal3 cells) (human, UniProt P17931 2-250); test: flow cytometry, A20 Gal3 cells, anti-hFc APC
# T8 construct: also called A20 cells overexpressing human Gal3; not shown: Flag tag
# [7] = biological target: T9, mouse Gal3 protein (BioLegend) (mouse, UniProt P16110 2-264, limits assumed); test: ELISA, mGal3 coated, mouse TIM-3 Fc
# T9 construct: also called mGal3
# [8] = biological target: T4, hGal3 peptide 6; test: peptide ELISA, 20-mer library (Epitope Mapping)
# [9] = biological target: T5, hGal3 peptide 4; test: peptide ELISA, 20-mer library (Epitope Mapping)
# [10] = biological target: T7, Human Galectin-3 protein (Acro …); test: ELISA, hGal3 coated, competitor hTIM3 (FIG. 24)
# [11] = biological target: T6, hGal3 peptide 2; test: peptide ELISA, 20-mer library (Epitope Mapping)
# [12] = biological target: T1, hGal3 peptide 1; test: dot blot, 20 ug peptide per dot, anti-mIgG HRP
# [13] = biological target: T6, hGal3 peptide 2; test: dot blot, 20 ug peptide per dot, anti-mIgG HRP
# [14] = biological target: T3, hGal3 peptide 7; test: dot blot, 20 ug peptide per dot, anti-mIgG HRP
# [15] = biological target: T5, hGal3 peptide 4; test: dot blot, 20 ug peptide per dot, anti-mIgG HRP
# [16] = biological target: T10, mouse Gal3 on mouse cells (B16F10 tumor cells, RAW264.7 macrophages) (mouse, UniProt P16110 2-264); test: flow cytometry, RAW cells, IMT001 10 ug/ml
# T10 construct: whole, on cells; also called mGal3; Gal3 on RAW cells
# T10 sequence (P16110 2-264, one chain of several): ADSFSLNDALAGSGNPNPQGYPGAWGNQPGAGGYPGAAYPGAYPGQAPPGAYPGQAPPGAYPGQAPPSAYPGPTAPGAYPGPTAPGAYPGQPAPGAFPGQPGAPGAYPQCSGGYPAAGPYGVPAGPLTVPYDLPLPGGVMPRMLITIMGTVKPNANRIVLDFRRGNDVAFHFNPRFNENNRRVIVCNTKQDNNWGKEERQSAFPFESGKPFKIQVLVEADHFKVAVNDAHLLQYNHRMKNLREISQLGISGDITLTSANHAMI
# T9 sequence (P16110 2-264 limits assumed): as the sequence (P16110 2-264, one chain of several) above
binder,measurement,setting,value
"20D11.2C6 (antibody, V domains shown, murine antibody) VH: EVQLQQSGPELVKPGASVKISCKASGYTFTDFYINWVKQSHGKSLEWIGDINPKNGGINYNPKFKIKATLTVDKSSSTSYMDLRGLTSEDSAVYYCTSGYGFPYWGQGTLVTVSA VL: DIQMNQSPSSLSASLGDTITITCRASQNIYIWLSWYQQKPGNIPKLLIYKASNLHTGVPSRFSGSGSGTDFTLTISTLQPEDIATYFCLQGQSYPLTFGAGTKLEMK",GAL3-TIM3 Blocking @ 3 ug/mL,[1],40%
same,binding result,[2],binds
same,binding result,[3],binds
same,binding result,[4],binds
same,Kd,[5],27.8 nM
"15G7.2A7 (antibody, V domains shown, murine antibody) VH: EVQLQQSGPELVKPGASVKISCKASGYTFTDYYMNWVKQSHGKSLEWIGDINPNNGGTNYNQKFKGKATLTVDKSSSTAYMELRSLTSEDSAVYYCTSGYGFPYWGQGTLVTVSA VL: DIQMNQSPSSLSASLGDTISITCRASQNINIWLSWYQQKPGNIPQLLIYKASNLHTGVPSRFSGSGSGTDFTLTISSLQPEDIATYYCLQGQSYPLTFGAGTKLVMK",GAL3-TIM3 Blocking @ 3 ug/mL,[1],48%
same,binding result,[2],binds
same,binding result,[3],binds
same,binding result,[4],binds
same,Kd,[5],11.3 nM
"mouse TIM-3 Fc protein (R&D systems) (Fc fusion, UniProt Q8VIM0 20-191, looked up, also called mTIM-3 Fc; mTIM-3-Fc; not shown: Fc, detected with anti-human Fc / anti-human IgG) RSLENAYVFEVGKNAYLPCSYTLSTPGALVPMCWGKGFCPWSQCTNELLRTDERNVTYQKSSRYQLKGDLNKGDVSLIIKNVTLDDHGTYCCRIQFPGLMNDKKLELKLDIKAAKVTPAQTAHGDSTTASPRTLTTERNGSETQTLVTLHNNNGTKISTWADEIKDSGETIR",binding result,[6],binds
same,binding result,[7],binds
"3B11.2G2 (antibody, V domains shown, murine antibody; also called 3B11.2D2) VH: QIQLVQSGPELKKPGETVKISCKTSGYKFKTYVMSWVKQAPGKALKWMGWINTYSGVPTYADDFKGRFAFSLETSASTAYLEIINLKNEDTATYFCARDGNYGDPMDYWGQGTSVTVSS VL: not shown",GAL3-TIM3 Blocking @ 3 ug/mL,[1],33%
same,binding result,[8],binds
same,binding result,[9],binds
same,Kd,[5],< 1 nM
"13A12.2E5 (antibody, V domains shown, murine antibody) VH: QIQLVQSGPELKKPGETVKISCKTSGYKFKTYVMSWVKQAPGKALKWMGWINTYSGVPTYADDFKGRFAFSLETSASTAYLEIINLKNEDTATYFCARDGNYGDPMDYWGQGTSVTVSS VL: DVVMTQTPLTLSVAIGQPASISCKSSQSLLYTNGKTYLNWLLQRPGQSPKRLIYLLSKLDSGVPDRFSASGSGTDFTLKISRVEAEDLGVYYCLQSTHFPLTFGAGTKLEMK",GAL3-TIM3 Blocking @ 3 ug/mL,[1],35%
same,binding result,[8],binds
same,binding result,[9],binds
same,Kd,[5],8.2 nM
"13G4.2F8 (antibody, V domains shown, murine antibody) VH: QVQLQQPGAELVKPGASVKLSCKASGYTFTSYWMHWVKQRPGQGLEWIGMIHPNSGSTDYNEKFKNKATLNVDKSSSTAYIQLSSLTSEDSAVYYCTRWGIYYYARDYWGQGTTLTVSS VL: DIVMTQSQKFMSTSVGERVSITCKASQNVGTNVAWYQQKAGQSLELLIYGASNRHTGVPDRFTGSGSGTDFTLTITNVQSEDMTNYFCEQYSNFPLTFGAGTKLELK",GAL3-TIM3 Blocking @ 3 ug/mL,[1],0%
same,reduction of TIM3-GAL3 binding,[10],≤ 25%
same,Kd,[5],2.53 nM
"24D12.2H9 (antibody, V domains shown, murine antibody) VH: QVQLKQSGPGLVQPSQSLSITCTVSGFSLTSYGVHWVRQAPGKGLEWLGVIWSGGSTDYNAAFMSRLSISKDNSKSQVFFKMNSLQADDTAIYYCAKSPDGYDVAWFGYWGQGTLVTVSA VL: DIVMTQSHKFMSTSVGDRVSITCKASQDVRTAVAWYQQKPGQSPKLLIYWASTRHTGVPDRFTGSGSGTDFTLTLSNVQSEDLADYFCQQYSSYPWTFGGGTKLEIK",GAL3-TIM3 Blocking @ 3 ug/mL,[1],0%
same,reduction of TIM3-GAL3 binding,[10],≤ 25%
same,Kd,[5],4.13 nM
"4G2.2G6 (antibody, V domains shown, murine antibody) VH: QIQLVQSGPDLKKPGETVKISCKASGYTFTTYVMSWVKQAPGKDLKWMGWINTHSGVPTYADDFKGRFDFSLETSANTAFLQINNLKNEDTATYFCTRDGNDGDAMDNWGQGTSVTVSS VL: not shown",GAL3-TIM3 Blocking @ 3 ug/mL,[1],48%
same,binding result,[9],binds
same,Kd,[5],< 1 nM
"7D8.2D8 (antibody, V domains shown, murine antibody) VH: EVQLVESGGGLVKPGGSLKLSCAASGFTFSSYAMSWVRQTPEKRLEWVATISDGGIYTYYPDNVKGRFTISRDNAKNNLFLQMSHLKSEDTAMYYCVRDGGYWGQGTTLTVSS VL: DVLMTQTPLSLPVSLGDQASISCRSSQSIVHSNGNTYLEWYLQKPGQSPKLLIYKVSNRFSGVPDRFSGSGSGTDFTLKISRVEAEDLGVYYCFQGSHVPLTFGAGTKLELK",GAL3-TIM3 Blocking @ 3 ug/mL,[1],12%
same,binding result,[11],binds
same,binding result,[4],binds
same,Kd,[5],2.49 nM
"15F10.2D6 (antibody, V domains shown, murine antibody) VH: EVQLVESGGGLVKPGGSLKLSCAASGFAFSSYAMSWVRQTPEKRLEWVATISDGGVYTYYTDHVKGRFTISRDNAEDNLYLQMSHLKSEDTAMYYCVRDGGYWGQGTTLTVSS VL: DVLMTQTPLSLPVSLGDQASISCRSSQSIVHNNGNTYLEWYLQKPGQSPKLLIYKVSNRFSGVPDRFSGSGSGTDFTLKISRVEAEDLGVYYCFQGSHVPLTFGGGTKLELK",GAL3-TIM3 Blocking @ 3 ug/mL,[1],19%
same,binding result,[11],binds
same,binding result,[4],binds
same,Kd,[5],2.06 nM
"mIMT001 (IMT001) (antibody, V domains shown, treated here as one molecule; also called mAb IMT001; Gal3 antibody clone IMT001) VH: QIQLVQSGPELKKPGETVKISCKASGYTFTNYGMNWVKQAPGKGLKWMGWINTNTGEPTYVEEFKGRFAFSLETSASTAYLQINNLKNEDTATYFCAPYDNFFAYWGQGTLVTVSA VL: DIVITQDELSNPVTSGESVSISCRSSKSLLYKDGKTYLNWFLQRPGQSPQLLIYLMSTHASGVSDRFSGSGSGTDFTLEISRVKAEDVGVYYCQQLVDYPLTFGAGTKLELK",binding result,[12],no binding (tested: 1 ug/ml)
same,binding result,[13],no binding (tested: 1 ug/ml)
same,binding result,[14],no binding (tested: 1 ug/ml)
same,binding result,[15],no binding (tested: 1 ug/ml)
same,"MFI, fold over isotype control antibody",[16],> 10 fold
same,GAL3-TIM3 Blocking @ 3 ug/mL,[1],80%
same,Kd,[5],1.67 nM
"12G5.D7 (antibody, V domains shown, murine antibody) VH: QVQLKQSGAELVRPGASVKLSCKASGYTFTDYYINWVKQRPGQGLEWIARIYPGTGNTDYNEKFKGRATLTAEKSSSTAYMQLSSLTSEDSAVYFCARFAYYYGSGGYFDYWGHGTTLTVSS VL: DILMTQSPSSMSVSLGDTVSITCHASQGINSNMGWLQQKPGKSFKGLIYHATNLEDGVPSRFSGSGSGADYSLTISSLESEDFADYYCVQYAQFPPTFGSGTKLEIK",GAL3-TIM3 Blocking @ 3 ug/mL,[1],12%
same,reduction of TIM3-GAL3 binding,[10],≤ 25%
same,Kd,[5],1.9 nM
